Marks after values point to notes of the source that are not given here. Values belong to the molecule of their own block, whether it stands above or below them.
Legend:
[1] = molecular target: NLuc-ACKR3 (Homo sapiens, UniProt P25106); assay: NanoBRET competition binding versus AZDye-labeled CXCL12 on NLuc-ACKR3 membranes; set-up: 5HT3a signal peptide (N); host or cells: HEK293T, transient; membrane preparation
Experimental: (§1) HEK293T cells (2 × 10^6) were seeded in 10 cm^2 culture dishes. […] After two days, the cells were collected in PBS and centrifuged at 2700 rpm at 4 °C. Next, the cell pellet was resuspended in ice-cold membrane buffer (15 mM of Tris, 0.3 mM of EDTA, 2 mM of MgCl2, pH 7.4 at 4 °C) and homogenized by plunging the pestle using 10 strokes at 1100 rpm. The cell homogenates were exposed to two freeze and thaw cycles using liquid nitrogen and were centrifuged at 25,000 rpm. The pellet was resuspended in Tris-sucrose buffer (20 mM of Tris, 250 mM of Sucrose, pH 7.4 at 4 °C). Finally, cell membranes were homogenized using a 23-gauge needle, followed by snap-freezing with liquid nitrogen and then stored at −80 °C.
All experiments were analyzed using Graphpad Prism 9.0. For binding experiments, pIC50 values were obtained using a one-site pIC50 model using global fitting with shared non-specific binding values.
(§2) For saturation binding experiments, the KD was obtained using one-site total and non-specific binding. For binding experiments, pIC50 values were obtained using a one-site pIC50 model. The equilibrium dissociation constants (Ki) of unlabeled ligands were subsequently calculated using the Cheng−Prusoff equation. (1) K1=IC50/1+L/KD where [L] is the concentration of the labeled ligand and KD is the equilibrium dissociation constant of the labeled ligand.

[2] = molecular target: T1, NLuc-CXCR3 (Homo sapiens, UniProt P49682); assay: Multiplex NanoBRET binding, mixed NLuc-CXCR3 and NLuc-CXCR4 membranes, read at 520 nm (CXCL10-AZD488); details: mixed (1:1) NLuc-CXCR3 and NLuc-CXCR4 membranes; both CXCL10-AZD488 and CXCL12-AZD647, 10 nM each
T1 construct: 5HT3a signal peptide (N); expressed in transfected cells; host or cells: HEK293T, transient; membrane preparation
T1 sequence (P49682 2-368 limits assumed): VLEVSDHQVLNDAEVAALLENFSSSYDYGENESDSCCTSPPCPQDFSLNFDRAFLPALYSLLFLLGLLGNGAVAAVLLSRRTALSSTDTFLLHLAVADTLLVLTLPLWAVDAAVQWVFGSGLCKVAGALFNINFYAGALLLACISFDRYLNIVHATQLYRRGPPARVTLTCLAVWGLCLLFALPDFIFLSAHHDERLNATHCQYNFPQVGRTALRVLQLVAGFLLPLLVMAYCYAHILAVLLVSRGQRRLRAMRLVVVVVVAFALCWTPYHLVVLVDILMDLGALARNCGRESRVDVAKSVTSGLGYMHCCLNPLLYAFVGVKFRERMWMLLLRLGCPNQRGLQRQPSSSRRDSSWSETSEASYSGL
Experimental: (§3) HEK293T cells (2 × 10^6) were seeded in 10 cm^2 culture dishes. After 24 h, the cells were transfected with 0.25 µg of plasmid DNA encoding human NLuc-ACKR3, NLuc-CXCR4 or NLuc-CXCR3, and 4.75 µg of pcDEF3 plasmid DNA using 30 µg of linear PEI. After two days, the cells were collected in PBS and centrifuged at 2700 rpm at 4 °C. Next, the cell pellet was resuspended in ice-cold membrane buffer (15 mM of Tris, 0.3 mM of EDTA, 2 mM of MgCl2, pH 7.4 at 4 °C) and homogenized by plunging the pestle using 10 strokes at 1100 rpm. The cell homogenates were exposed to two freeze and thaw cycles using liquid nitrogen and were centrifuged at 25,000 rpm. The pellet was resuspended in Tris-sucrose buffer (20 mM of Tris, 250 mM of Sucrose, pH 7.4 at 4 °C). Finally, cell membranes were homogenized using a 23-gauge needle, followed by snap-freezing with liquid nitrogen and then stored at −80 °C.
(§4) NanoBRET was measured after 1 h of incubation at room temperature, as described above.
as §2, with “(1) K1=IC50/1+L/KD where [L] is the concentration of the labeled ligand and KD is the equilibrium dissociation constant of the labeled ligand.” left out

[3] = molecular target: T2, NLuc-CXCR4 (Homo sapiens, UniProt P61073); assay: Multiplex NanoBRET binding, mixed NLuc-CXCR3 and NLuc-CXCR4 membranes, read at 640 nm (CXCL12-AZD647); set-up: 5HT3a signal peptide (N); host or cells: HEK293T, transient; membrane preparation; details: mixed (1:1) NLuc-CXCR3 and NLuc-CXCR4 membranes; both CXCL10-AZD488 and CXCL12-AZD647, 10 nM each
Experimental: as §1, §2

[4] = molecular target: T1, NLuc-CXCR3; assay: NanoBRET competition binding versus CXCL10-AZD488 on NLuc-CXCR3 membranes only (520 nm)
Experimental: as §3, §4, §2

[5] = molecular target: CXCR4 (Homo sapiens, UniProt P61073); assay: CXCR4-mediated inhibition of isoprenaline-induced intracellular cAMP (FRET-based EPAC sensor) in HEK293 cells; format: cell-based; details: HEK293 cells stably expressing CXCR4 and EPAC sensor; 100 nM isoprenaline; mean ± SD
Experimental: Human embryonic kidney 293 cells stably co-expressing CXCR4 and the FRET-based EPAC sensor with mCerulean and mCitrine as a FRET pair were kindly provided by Dr. M. Zimmermann (Interax Biotech, Zurich, Switzerland), and were cultured in DMEM supplemented with 10% FBS and penicillin ([…]), streptomycin ([…]), zeocin (0.06 mg/mL) and G418 (0.6 mg/mL) at 37 °C with 5% CO2.
HEK293 cells stably expressing CXCR4 and a FRET-based EPAC sensor were seeded into a 96-well black plate (0.5 × 10^6/well). […] Fluorescence was measured using the following parameters: excitation at 430–15 nm, and emission at 530–20 and 480–20 nm using the CLARIOstar Plus (BMG Labtech, Ortenberg, Germany). The FRET ratio was calculated by dividing the signal of the acceptor at 530 nm by the donor signal at […].

[6] = molecular target: T2, NLuc-CXCR4; assay: NanoBRET saturation binding to HEK293T membranes expressing NLuc-CXCR4; set-up: 5HT3a signal peptide (N); host or cells: HEK293T, transient; membrane preparation; details: non-specific binding with 10 µM IT1t, mean ± SD
Experimental: as §1, §2

[7] = molecular target: T2, NLuc-CXCR4
[8] = molecular target: HA-tagged ACKR3 C-terminally fused to SmBit (UniProt P25106)
[9] = molecular target: T2, NLuc-CXCR4; assay: FRET or BRET; NanoBRET competition binding against CXCL12-AZD488 (0.3 nM on NLuc-ACKR3, 10 nM on NLuc-CXCR4 HEK293T membranes) with increasing unlabeled ligand; HBSS with 0.2% BSA; 1 h at room temperature; Ki by Cheng-Prusoff
[10] = molecular target: T2, NLuc-CXCR4; assay: FRET or BRET; NanoBRET competition binding against CXCL12-AZD594 (0.3 nM on NLuc-ACKR3, 10 nM on NLuc-CXCR4 HEK293T membranes) with increasing unlabeled ligand; HBSS with 0.2% BSA; 1 h at room temperature; Ki by Cheng-Prusoff
[11] = molecular target: T2, NLuc-CXCR4; assay: FRET or BRET; NanoBRET competition binding against CXCL12-AZD647 (0.3 nM on NLuc-ACKR3, 10 nM on NLuc-CXCR4 HEK293T membranes) with increasing unlabeled ligand; HBSS with 0.2% BSA; 1 h at room temperature; Ki by Cheng-Prusoff
[12] = molecular target: T2, NLuc-CXCR4; assay: FRET or BRET; NanoBRET competition binding against CXCL12-AZD546 (0.3 nM on NLuc-ACKR3, 10 nM on NLuc-CXCR4 HEK293T membranes) with increasing unlabeled ligand; HBSS with 0.2% BSA; 1 h at room temperature; Ki by Cheng-Prusoff
[13] = molecular target: T3, NLuc-ACKR3 (human, UniProt P25106 1-362); assay: FRET or BRET; NanoBRET competition binding against CXCL12-AZD594 (0.3 nM on NLuc-ACKR3, 10 nM on NLuc-CXCR4 HEK293T membranes) with increasing unlabeled ligand; HBSS with 0.2% BSA; 1 h at room temperature; Ki by Cheng-Prusoff; details: one partner purified
T3 construct: ACKR3 (CXCR7), human; NLuc is preceded by the 5HT3a signal peptide and fused via a Gly-Ser linker (BamHI site) to ACKR3, in pcDNA3.1; also called CXCR7; source: HEK293T, transiently transfected, membrane preparation; not shown: NLuc, N-terminal, kept

[14] = molecular target: T3, NLuc-ACKR3; assay: FRET or BRET; NanoBRET competition binding against CXCL12-AZD647 (0.3 nM on NLuc-ACKR3, 10 nM on NLuc-CXCR4 HEK293T membranes) with increasing unlabeled ligand; HBSS with 0.2% BSA; 1 h at room temperature; Ki by Cheng-Prusoff; details: one partner purified
[15] = molecular target: T3, NLuc-ACKR3; assay: FRET or BRET; NanoBRET competition binding against CXCL12-AZD488 (0.3 nM on NLuc-ACKR3, 10 nM on NLuc-CXCR4 HEK293T membranes) with increasing unlabeled ligand; HBSS with 0.2% BSA; 1 h at room temperature; Ki by Cheng-Prusoff; details: one partner purified
[16] = molecular target: T3, NLuc-ACKR3; assay: FRET or BRET; NanoBRET competition binding against CXCL12-AZD546 (0.3 nM on NLuc-ACKR3, 10 nM on NLuc-CXCR4 HEK293T membranes) with increasing unlabeled ligand; HBSS with 0.2% BSA; 1 h at room temperature; Ki by Cheng-Prusoff; details: one partner purified
[17] = 0.3 nM probe, Cheng-Prusoff, mean ± SD

Molecule: CXCL12-AZD546: CXCL12 tagged at the C-terminus with fluorescent AZDye 546 by click chemistry
- cAMP by CXCR4 (pEC50) [5]: 8.6 ± 0.3
- pKD for CXCR4 [6]: 8.0 ± 0.0

Molecule: Human recombinant CXCL12 (unlabeled) (from UniProt P48061 22-93) (ligand)
- pEC50 of inhibition of isoprenaline-induced cAMP (FRET-based EPAC sensor) in HEK293 cells stably expressing CXCR4 (not the NLuc fusion) [7]: 9.7
- pEC50 of β-arrestin2 recruitment to ACKR3 (NanoBiT complementation, HEK293T cells) [8]: 8
- pKi [9]: 8.4
- pKi [10]: 8.2
- pKi [11]: 8.4
- pKi [12]: 9

Molecule: CXCL12-AZD594: CXCL12 tagged at the C-terminus with fluorescent AZDye 594 by click chemistry
- cAMP by CXCR4 (pEC50) [5]: 8.9 ± 0.2
- pKD for CXCR4 [6]: 7.6 ± 0.1

Molecule: CC1(C)CN2C(CSC(=NC3CCCCC3)NC3CCCCC3)=CSC2=N1 [IT1t]
- pKi, Multiplex at 520 nm [2]: no clear competition binding curve was detected

Molecule: CXCL12-AZD647: CXCL12 tagged at the C-terminus with fluorescent AZDye 647 by click chemistry
- pKD for CXCR4 [6]: 7.9 ± 0.1

B1: CXCL11 (unlabeled) (ligand, UniProt O14625 22-94, looked up)
chain: FPMFKRGRCLCIGPGVKAVKVADIEKASIMYPSNNCDKIEVIITLKENKGQRCLNPKSKQARLIIKKVERKNF
notes: CXCL11, unlabeled chemokine
- pKi [13]: 9.5
- pKi [14]: 9.2
- pKi [15]: 9.4
- pKi [16]: 9.4

Second part, led by results:

- Binding affinity (pKi) for NLuc-ACKR3, probe CXCL12-AZD488 [1, 17]: 7.9 ± 0.1 ^b
- Binding affinity (pKi) for NLuc-ACKR3, probe CXCL12-AZD546 [1, 17]: 7.9 ± 0.1
- Binding affinity (pKi) for NLuc-ACKR3, probe CXCL12-AZD594 [1, 17]: 8.1 ± 0.2
- Binding affinity (pKi) for NLuc-ACKR3, probe CXCL12-AZD647 [1, 17]: 8.2 ± 0.1
- fold lower affinity for ACKR3 when tested in competition with CXCL12-AZD488 ([1]; compared with the other three probes): 5 fold
Molecule: COc1cc(C(=O)N(CCC2CCCN2C)CC(C)=Cc2ccccc2F)cc(OC)c1OC (centres unmarked) [VUF15485]

- pKi, Multiplex at 520 nm [2]: 8.8 ± 0.1
- pKi, CXCR3 Only at 520 nm ([4]; 10 nM CXCL10-AZD488, NLuc-CXCR3 membranes only): 8.8 ± 0.2
- fold higher than the Ki from competition binding with [125I]-CXCL11 ([4]; comparison with ref 23): 10 fold
- fold lower than the Ki from competition binding with [3H]-VUF11211 ([4]; comparison with ref 23): 1.5 fold
Molecule: CCNC(=O)c1cnc(N2CCN(C3CCN(Cc4ccc(Cl)cc4)CC3)[C@@H](CC)C2)c(Cl)c1 [VUF11211]
- pKi, Multiplex at 640 nm [3]: no clear competition binding curve was detected

— PMC11084278 (International Journal of Molecular Sciences, 2024)
